In paper PMC10638775, “Development of synthetic modulator enabling long-term propagation and neurogenesis of human embryonic stem cell-derived neural progenitor cells”:

Target: FGFR1 extracellular domain (human, UniProt P11362 22-376)
Experiment: SPR; 1:1 model; ka 2.20E10 1/Ms, kd 54.9 1/s; SPR: Biacore T200, CM5 amine coupling, HBS running buffer (pH, salt, temperature not stated); flow cytometry: PBS, 1% BSA, 0.1% sodium azide, room temperature
Conditions: protein: commercial; stem-loop (Mfold)

Sequence of FGFR1 extracellular domain (P11362 22-376): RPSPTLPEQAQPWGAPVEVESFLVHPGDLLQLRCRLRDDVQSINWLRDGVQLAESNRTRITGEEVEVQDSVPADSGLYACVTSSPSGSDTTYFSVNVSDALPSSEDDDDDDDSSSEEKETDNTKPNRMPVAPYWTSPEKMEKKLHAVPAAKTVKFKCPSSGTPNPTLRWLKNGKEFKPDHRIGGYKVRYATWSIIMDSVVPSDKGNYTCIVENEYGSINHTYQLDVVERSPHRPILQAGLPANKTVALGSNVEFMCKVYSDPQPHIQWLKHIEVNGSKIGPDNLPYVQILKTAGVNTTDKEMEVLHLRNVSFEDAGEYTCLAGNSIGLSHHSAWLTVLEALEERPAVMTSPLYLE

With GCCGCGTCTTTATGGCTGGGGATGGTGTGGGTTGCGGC (structured_DNA) [FGFR-binder] the Kd was 2.5 nM.
